Publication PMC2822742

Molecular target: RBPJκ in Raji cell extract (human (endogenous in Raji)) (UniProt Q06330)
Experiment: native gel or EMSA

Sequence of UniProt Q06330 (Q06330 whole entry): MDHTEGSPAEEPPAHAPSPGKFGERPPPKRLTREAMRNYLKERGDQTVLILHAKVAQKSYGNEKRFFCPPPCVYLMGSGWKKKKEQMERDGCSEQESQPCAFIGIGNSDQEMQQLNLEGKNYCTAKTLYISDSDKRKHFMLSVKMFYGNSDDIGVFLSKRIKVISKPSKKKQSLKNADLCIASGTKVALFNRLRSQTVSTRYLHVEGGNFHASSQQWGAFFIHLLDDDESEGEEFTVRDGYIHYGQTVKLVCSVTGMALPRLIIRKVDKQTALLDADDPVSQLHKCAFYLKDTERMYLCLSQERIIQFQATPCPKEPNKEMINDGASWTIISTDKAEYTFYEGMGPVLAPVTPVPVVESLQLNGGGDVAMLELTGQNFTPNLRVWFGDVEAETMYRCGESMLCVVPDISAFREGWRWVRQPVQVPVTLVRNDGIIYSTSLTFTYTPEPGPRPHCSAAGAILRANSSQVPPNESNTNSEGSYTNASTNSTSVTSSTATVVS

EBNA2 in Raji cell extract (from UniProt P12978 1-487) (natural protein)
decrease in EMSA signal intensity, AdOx-treated against untreated extract: 30 to 67%
